Experimental data from patent publication US20100166747A1.

Experiments:
[1] = target: hu IGF-1R(ECD)-C3-muIgG1Fc (human; mouse); assay: ORIGEN competition on IGF-1R(ECD)-C3-muFc beads; competitor 1 nM Ru-IGF-1
[2] = target: hu IGF-1R(ECD)-C3-muIgG1Fc (human; mouse); assay: ORIGEN competition on IGF-1R(ECD)-C3-muFc beads; competitor 2 nM Ru-IGF-2

murine anti-IGF-1R antibody 1H7 (Santa Cruz Biotechnology)
Max (%) maximum level of inhibition at 1 µM antibody [1]: 89% | Max (%) maximum level of inhibition at 1 µM antibody [2]: 99%

murine anti-IGF-1R antibody αIR3 (Calbiochem)
Max (%) maximum level of inhibition at 1 µM antibody [1]: 91%
